# According to the supplement of paper PMC7877785:
# ± gives the uncertainty stated by the source.
# Experiment: self-splicing fitness, log relative to wild type (ln ratio); higher = more splicing; Tetrahymena group I intron in knt gene, E. coli kanamycin selection, DiMSum; sequences stand for … in CUCUCU…GGAGGGAAAAGUUAUCAGGCAUGCACCUGGUAGCUAGUCUUUAAACCAAUAGAUUGCAUCGGUUUAAAAGGCAAGACCGUCAAAUUGCGGGAAAGGGGUCAACAGCCGUUCAGUACCAAGUCUCAGGGGAAACUUUGAGAUGGCCUUGCAAAGGGUAUGGUAAUAAGCUGACGGACAUGGUCCUAACCACGCAGCCAAGUCCUAAGUCAACAGAUCUUCUGUUGAUAUGGAUGCAGUUCACAGACUAAAUGUCGGUCGGGGAAGAUGUAUUCUUCUCAUAAGAUAUAGUCGGACCUCUCCUUAAUGGGAGCUAGCGGAUGAAGUGAUGCAACACUGGAGCCGCUGGGAACUAAUUUGUAUGCGAAAGUAUAUUGAUUAGUUUUGGAGUACUCGUGGUCG
# Summary of the method: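 Six replicate transformations of E. coli BL21(DE3) with a pET-22b(+) library were grown overnight at 37°C or 30°C. The library randomised all eight P1ex-region intron nucleotides, the intron lying in the knt kanamycin-resistance gene, and plates were LB agar with or without 25 μg/mL kanamycin plus 100 μg/mL carbenicillin, 50 μM IPTG and 0.2% rhamnose. Pooled colonies were amplicon-sequenced on an Illumina HiSeq 2500, and fitness is the DiMSum error-weighted combination of wild-type-normalised replicate fold changes, kanamycin versus none.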
Sequence,self-splicing fitness (ln) (30 °C),self-splicing fitness (ln) (37 °C)
CUCGAGCAAUAUUACGGGUG,-2.04 ± 0.077,-1.88 ± 0.095
CUCGAGCAAUAUUACGGUUA,-2.71 ± 0.16,-1.58 ± 0.13
CUCGAGCAAUAUUACGUAUU,-3.51 ± 0.15,-1.96 ± 0.14
CUCGAGCAAUAUUACGUGAC,-2.55 ± 0.17,-1.73 ± 0.16
CUCGAGCAAUAUUACGUGCA,-2.2 ± 0.17,-1.01 ± 0.17
CUCGAGCAAUAUUACGUGCU,-2.36 ± 0.24,–
CUCGAGCAAUAUUACGUGGC,–,-0.934 ± 0.32
CUCGAGCAAUAUUACGUGUC,–,-2.76 ± 0.27
CUCGAGCAAUAUUACGUUCC,-3.4 ± 0.19,-2.63 ± 0.27
CUCGAGCAAUAUUACGUUCU,-3.52 ± 0.17,-2.8 ± 0.18
CUCGAGCAAUAUUACGUUGA,-3.86 ± 0.28,-2.63 ± 0.38
CUCGAGCAAUAUUACGUUGG,-3.48 ± 0.18,-3.17 ± 0.14
CUCUAGCAAUAUUACGAACA,–,-2.98 ± 0.34
CUCUAGCAAUAUUACGAGGC,-3.18 ± 0.36,–
CUCUAGCAAUAUUACGAGGU,-3.21 ± 0.26,-3.6 ± 0.29
CUCUAGCAAUAUUACGCCGC,–,-3.15 ± 0.43
CUCUAGCAAUAUUACGCGGC,-2.81 ± 0.3,-2.45 ± 0.3
CUCUAGCAAUAUUACGGACA,-2.52 ± 0.47,-2.66 ± 0.4
CUCUAGCAAUAUUACGGACG,-0.959 ± 0.14,-0.0675 ± 0.16
CUCUAGCAAUAUUACGGCAU,-4.62 ± 0.39,-3.62 ± 0.42
CUCUAGCAAUAUUACGGGAU,-2.37 ± 0.11,-3.45 ± 0.16
CUCUAGCAAUAUUACGGGGG,-3.07 ± 0.3,-2.38 ± 0.26
CUCUAGCAAUAUUACGGGUA,-2.21 ± 0.14,-1.05 ± 0.12

Sequence,self-splicing fitness (ln) (30 °C),self-splicing fitness (ln) (37 °C)
CUCUAGCAAUAUUACGGUUA,–,-3.24 ± 0.29
CUCUAGCAAUAUUACGUAAU,-3.59 ± 0.26,-3.77 ± 0.46
CUCUAGCAAUAUUACGUGGC,-3.7 ± 0.22,-2.82 ± 0.24
CUCUAGCAAUAUUACGUGUA,-3.62 ± 0.21,-4.02 ± 0.27
CUGAAGCAAUAUUACGACAA,-0.913 ± 0.13,0.0189 ± 0.19
CUGAAGCAAUAUUACGACAG,-0.755 ± 0.063,0.511 ± 0.11
CUGAAGCAAUAUUACGAGAA,-3.29 ± 0.3,–
CUGAAGCAAUAUUACGCAAU,-3.09 ± 0.24,-2.67 ± 0.36
CUGAAGCAAUAUUACGCAGA,-3.67 ± 0.19,-2.71 ± 0.21
CUGAAGCAAUAUUACGCCGC,-3.17 ± 0.35,–
CUGAAGCAAUAUUACGCGUC,-3.62 ± 0.33,-3.55 ± 0.35
CUGAAGCAAUAUUACGGAUA,-4.19 ± 0.22,-1.19 ± 0.18
CUGAAGCAAUAUUACGGCUA,-3.03 ± 0.25,-1.22 ± 0.25
CUGAAGCAAUAUUACGGUCC,-3.78 ± 0.34,-2.38 ± 0.46
CUGAAGCAAUAUUACGGUCG,0.651 ± 0.072,-0.32 ± 0.082
CUGAAGCAAUAUUACGGUUU,-3.24 ± 0.22,-2.72 ± 0.18
CUGAAGCAAUAUUACGUAGA,-4.28 ± 0.34,-1.75 ± 0.27
CUGAAGCAAUAUUACGUAUG,-0.151 ± 0.056,-0.154 ± 0.068
CUGAAGCAAUAUUACGUGCG,0.0994 ± 0.061,-0.325 ± 0.073
CUGAAGCAAUAUUACGUGGU,-3.3 ± 0.15,-1.41 ± 0.18
CUGAAGCAAUAUUACGUGUU,-3.7 ± 0.14,-2.13 ± 0.17
CUGAAGCAAUAUUACGUUUG,-1.52 ± 0.061,-1.23 ± 0.099
